Results published in US20260026500A1, “AGROCHEMICAL COMPOSITIONS” (BIOTALYS NV, priority 2022, published 2026).

Test system: Botrytis cinerea
Assay: In vitro microtiter plate antifungal assay, confluence analysis (IncuCyte S3) of spore outgrowth
Format: cell-based
Text: An “IC50 value”, “EC50”, “IC50”, “EC50” or “half maximal inhibitory concentration” as used herein interchangeably is a measure for the potency of a polypeptide or cell wall disrupting agent or compositions as described herein in inhibiting the growth of a fungal pathogen. In practice (also see example 1) the growth of a fungal pathogen is tracked by measuring the confluency of said fungal pathogen in for example a well of a 96-well plate or 384-well plate in the presence of a series of different concentrations of the tested polypeptide or cell wall disrupting agent or compositions as described herein. The confluency data at the time-point at which the non-treated or negative control reaches for example 90% saturation is then taken for each concentration of the polypeptide or cell wall disrupting agent or compositions as described herein. Said confluence values are then plotted against the log transformed concentration values yielding a sigmoidal curve. This sigmoid curve may serve to define an IC50 value. Where this IC50 is the concentration of the polypeptide or cell wall disrupting agent or compositions as described herein where the corresponding confluence value is 50% of the saturated value as estimated by the maximum of the sigmoidal function.
The antifungal activity of VHHs, in combination with CWDEs, was assessed in an in vitro assay against the plant pathogenic fungus Botrytis cinerea. The current in vitro assay is a standard microtiter plate-based antifungal assay against Botrytis cinerea based on confluence analysis using an IncuCyte S3 System tracking the outgrowth of fungal spores overtime until saturation is reached. VHHs and CWDEs were assessed in serial dilutions, alone and in combination. The CWDEs were mixed with one VHH at a fixed ratio and serially diluted in 10 mM sterile HEPES buffer pH 7. […] Confluence was calculated with IncuCyte software version 2021C (Essen BioScience Inc.). […]
The IC50 value for both the CWDE and VHH were determined separately (FIGS. 1A and 1B, top panel). […]

B1: VHH-1: VHH, SEQ ID NO 1; taken from WO2021198396 (protein)
VHH: DVQLVESGGGLVQAGGSLRLSCAASRSIFSINAMDWYRQAPGKQREWVAGITRGGTTKYADSVKGRFTISRDNAKKKVYLQMNSLKPEDTAVYYCNVLRGEQPWTRDYWGQGTQVTVSS
modifications: Synthetic VHH sequence.
IC50 value, determined separately (VHH or CWDE alone, confluence of Botrytis cinerea, 4-parameter log-logistic fit, CWDE protein concentration overestimated): 105.2 µg/mL
% change, additive effect of component, buffer normalized to 100% (dose regime VHH-1 at 16.7 mg/L and CWDE at 25 mg/L, protease inhibitor 0.06 X): 20.5%
Estimate (% confluence), additive effect of component, difference from buffer (dose regime VHH-1 at 16.7 mg/L and CWDE at 25 mg/L, protease inhibitor 0.06 X, buffer 55.3): 11.3 % confluence
